Assays:
[1] = molecular target: human cMET (MET, c-Met, HGF receptor) on cells (human) (UniProt P08581); assay: flow cytometry (FACS), direct binding to NCI-H441 cells expressing human cMET
[2] = molecular target: human cMET (MET, c-Met, HGF receptor) on cells (human) (UniProt P08581); assay: flow cytometry (FACS) on EBC-1 cells endogenously expressing human cMet, fluorescent secondary antibody
[3] = molecular target: human cMET (MET, c-Met, HGF receptor) on cells (human) (UniProt P08581); assay: flow cytometry on MET-expressing BxPC3 cells, FITC anti-human IgG; 'affinity' (apparent)
[4] = molecular target: human cMET (MET, c-Met, HGF receptor) on cells (human) (UniProt P08581); assay: cell-based or functional assay

Chain of human cMET (MET, c-Met, HGF receptor) on cells (human) (P08581 25-1390): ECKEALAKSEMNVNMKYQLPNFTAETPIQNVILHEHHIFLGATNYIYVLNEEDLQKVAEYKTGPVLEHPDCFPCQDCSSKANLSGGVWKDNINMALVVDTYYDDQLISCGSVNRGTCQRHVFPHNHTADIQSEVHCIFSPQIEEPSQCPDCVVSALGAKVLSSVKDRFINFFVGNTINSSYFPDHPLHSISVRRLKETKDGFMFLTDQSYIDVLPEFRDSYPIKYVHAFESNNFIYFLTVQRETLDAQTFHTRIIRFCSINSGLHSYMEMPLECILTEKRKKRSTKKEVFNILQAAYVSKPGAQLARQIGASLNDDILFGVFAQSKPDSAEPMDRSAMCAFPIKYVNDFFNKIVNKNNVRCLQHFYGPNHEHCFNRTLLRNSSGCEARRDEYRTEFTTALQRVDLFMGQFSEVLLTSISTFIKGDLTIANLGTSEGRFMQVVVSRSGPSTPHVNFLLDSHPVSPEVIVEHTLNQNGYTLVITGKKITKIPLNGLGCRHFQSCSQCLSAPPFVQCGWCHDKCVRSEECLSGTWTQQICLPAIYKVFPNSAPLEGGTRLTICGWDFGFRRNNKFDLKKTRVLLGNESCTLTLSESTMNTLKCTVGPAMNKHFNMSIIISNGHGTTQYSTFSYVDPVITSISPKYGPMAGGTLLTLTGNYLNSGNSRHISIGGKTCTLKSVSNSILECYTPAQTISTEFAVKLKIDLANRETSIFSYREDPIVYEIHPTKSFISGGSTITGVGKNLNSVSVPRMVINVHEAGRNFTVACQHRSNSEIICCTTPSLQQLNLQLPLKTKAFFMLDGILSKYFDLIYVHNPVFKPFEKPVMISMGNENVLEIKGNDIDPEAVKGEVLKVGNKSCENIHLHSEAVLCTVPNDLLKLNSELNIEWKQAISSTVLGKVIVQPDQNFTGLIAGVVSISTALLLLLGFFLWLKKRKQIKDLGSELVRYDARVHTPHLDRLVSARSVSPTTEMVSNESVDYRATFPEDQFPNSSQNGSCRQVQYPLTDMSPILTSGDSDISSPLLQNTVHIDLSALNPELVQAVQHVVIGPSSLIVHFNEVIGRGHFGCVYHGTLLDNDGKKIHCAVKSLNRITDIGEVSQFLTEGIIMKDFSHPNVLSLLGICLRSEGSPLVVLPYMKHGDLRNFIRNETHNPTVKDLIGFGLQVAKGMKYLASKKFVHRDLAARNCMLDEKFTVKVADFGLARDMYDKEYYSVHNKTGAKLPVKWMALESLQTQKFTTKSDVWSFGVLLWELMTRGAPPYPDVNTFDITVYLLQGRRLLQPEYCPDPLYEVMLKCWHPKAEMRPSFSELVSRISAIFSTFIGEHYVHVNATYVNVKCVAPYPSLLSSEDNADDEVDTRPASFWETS

| Binder | EC50 (read off the curve) [1] [nM] | EC50 (read off the curve) [2] [nM] | further results |
| --- | --- | --- | --- |
| hucMet27v1.2 (antibody, human IgG1, kappa, V domains shown) VH: EVQLVESGGGLVQPGGSLRLSCAASGFTFSSYDMSWVRQTPGKGLELVATINSNGVSIYYPDSVKGRFTISRDIAKNTLYLQMSSLRAEDTAMYYCAREEITTEMDYWGQGTSVTVSS VL: DIVLTQSPASLAVSPGQRATISCRASESVDSYGNSFIHWYQQKPGQPPKLLIYRASNLESGIPARFSGSGSRTDFTLTINPVEANDVATYYCQQSNEEPLTFGGGTKLELKR | 0.4 | 0.3 |  |
| hucMet27Gv1.2-sSPDB-DM4 (antibody, human IgG1, kappa, V domains shown, sSPDB-DM4 conjugate; preparation of this one not described) VH: EVQLVESGGGLVQPGGSLRLSCAASGFTFSSYDMSWVRQAPGKGLELVATINSNGVSIYYPDSVKGRFTISRDIAKNSLYLQMNSLRAEDTAVYYCAREEITTEMDYWGQGTLVTVSS VL: EIVLTQSPATLSLSPGERATLSCRASESVDSYGNSFIHWYQQKPGQAPRLLIYRASNLESGIPARFSGSGSGTDFTLTISSLEPEDFAVYYCQQSNEEPLTFGQGTKVELKR |  | 0.5 |  |
| hucMet27v1.2-sSPDB-DM4 (antibody, human IgG1, kappa, V domains shown, lysines linked to sSPDB-DM4, on average 3-4 DM4 per antibody) VH: EVQLVESGGGLVQPGGSLRLSCAASGFTFSSYDMSWVRQTPGKGLELVATINSNGVSIYYPDSVKGRFTISRDIAKNTLYLQMSSLRAEDTAMYYCAREEITTEMDYWGQGTSVTVSS VL: DIVLTQSPASLAVSPGQRATISCRASESVDSYGNSFIHWYQQKPGQPPKLLIYRASNLESGIPARFSGSGSRTDFTLTINPVEANDVATYYCQQSNEEPLTFGGGTKLELKR |  | 0.2 |  |
| hucMET27Gv2.2 (antibody, human IgG1, kappa, V domains shown) VH: EVQLVESGGGLVQPGGSLRLSCAASGFTFSSYDMSWVRQAPGKGLELVATINSNGVSIYYPDSVKGRFTISRDIAKNSLYLQMNSLRAEDTAVYYCAREEITTEMDYWGQGTLVTVSS VL: EIVLTQSPATLSLSPGERATLSCRASESVDSYGNSFIHWYQQKPGQAPRLLIYRASNLESGIPARFSGSGSRTDFTLTISSLEPEDFAVYYCQQSNEEPLTFGQGTKVELKR | 0.2 |  |  |
| hucMet27Gv1.2 (antibody, human IgG1, kappa, V domains shown) VH: EVQLVESGGGLVQPGGSLRLSCAASGFTFSSYDMSWVRQAPGKGLELVATINSNGVSIYYPDSVKGRFTISRDIAKNSLYLQMNSLRAEDTAVYYCAREEITTEMDYWGQGTLVTVSS VL: EIVLTQSPATLSLSPGERATLSCRASESVDSYGNSFIHWYQQKPGQAPRLLIYRASNLESGIPARFSGSGSGTDFTLTISSLEPEDFAVYYCQQSNEEPLTFGQGTKVELKR | 0.2 | 0.5 |  |
| hucMet27v1.2-DGN549 (antibody, human IgG1, kappa, V domains shown, lysine-linked DGN549) VH: EVQLVESGGGLVQPGGSLRLSCAASGFTFSSYDMSWVRQTPGKGLELVATINSNGVSIYYPDSVKGRFTISRDIAKNTLYLQMSSLRAEDTAMYYCAREEITTEMDYWGQGTSVTVSS VL: DIVLTQSPASLAVSPGQRATISCRASESVDSYGNSFIHWYQQKPGQPPKLLIYRASNLESGIPARFSGSGSRTDFTLTINPVEANDVATYYCQQSNEEPLTFGGGTKLELKR |  | 0.4 |  |
| hucMet27Gv1.2-DGN549 (antibody, human IgG1, kappa, V domains shown, DGN549 conjugate; linkage site not stated for this antibody) VH: EVQLVESGGGLVQPGGSLRLSCAASGFTFSSYDMSWVRQAPGKGLELVATINSNGVSIYYPDSVKGRFTISRDIAKNSLYLQMNSLRAEDTAVYYCAREEITTEMDYWGQGTLVTVSS VL: EIVLTQSPATLSLSPGERATLSCRASESVDSYGNSFIHWYQQKPGQAPRLLIYRASNLESGIPARFSGSGSGTDFTLTISSLEPEDFAVYYCQQSNEEPLTFGQGTKVELKR |  | 0.4 |  |
| hucMET27Gv2.1 (antibody, human IgG1, kappa, V domains shown) VH: EVQLVESGGGLVQPGGSLRLSCAASGFTFSSYDMSWVRQAPGKGLEWVSTINSNGVSIYYPDSVKGRFTISRDNAKNSLYLQMNSLRAEDTAVYYCAREEITTEMDYWGQGTLVTVSS VL: EIVLTQSPATLSLSPGERATLSCRASESVDSYGNSFIHWYQQKPGQAPRLLIYRASNLESGIPARFSGSGSRTDFTLTISSLEPEDFAVYYCQQSNEEPLTFGQGTKVELKR | 0.2 |  |  |
| hucMET27Gv1.1 (antibody, human IgG1, kappa, V domains shown) VH: EVQLVESGGGLVQPGGSLRLSCAASGFTFSSYDMSWVRQAPGKGLEWVSTINSNGVSIYYPDSVKGRFTISRDNAKNSLYLQMNSLRAEDTAVYYCAREEITTEMDYWGQGTLVTVSS VL: EIVLTQSPATLSLSPGERATLSCRASESVDSYGNSFIHWYQQKPGQAPRLLIYRASNLESGIPARFSGSGSGTDFTLTISSLEPEDFAVYYCQQSNEEPLTFGQGTKVELKR | 0.2 |  |  |
| hu247.22.2-SMCC-DM1 (antibody, human IgG1, kappa, V domains shown, DM1 linked through SMCC, average of 3-4 DM1 molecules per antibody; sites (heavy or light chain) not stated) VH: EVQLVQSGAEVVKPGASVKIPCKASGYTFTDYNMDWVRQSPGKSLEWIGDLNPNNGATIYNEKFQGKATLTVDTSSSTAYMELRSLTSEDTAVYYCARGNYYGNYYYLMDYWGQGTSVTVSS VL: DIQMTQSPSSLSVSVGERVTITCRASENIYSTLAWYQQKPGKSPKLLVYAATNLADGVPSRFSGSGSGTEYSLKINSLQPDDFGSYYCQHFWGTPYTFGGGTKLEIKR |  |  | Kd [3]: 0.08 nM; in vitro cytotoxicity in MET-expressing MKN45 cells, EC50 [4]: 0.07 nM |
| hu247.22.2 (antibody, human IgG1, kappa, V domains shown) VH: EVQLVQSGAEVVKPGASVKIPCKASGYTFTDYNMDWVRQSPGKSLEWIGDLNPNNGATIYNEKFQGKATLTVDTSSSTAYMELRSLTSEDTAVYYCARGNYYGNYYYLMDYWGQGTSVTVSS VL: DIQMTQSPSSLSVSVGERVTITCRASENIYSTLAWYQQKPGKSPKLLVYAATNLADGVPSRFSGSGSGTEYSLKINSLQPDDFGSYYCQHFWGTPYTFGGGTKLEIKR |  |  | Kd [3]: 0.09 nM |
| hu247.22.2-SPDB-DM4 (antibody, human IgG1, kappa, V domains shown, DM4 linked through SPDB; number and sites not stated for this conjugate) VH: EVQLVQSGAEVVKPGASVKIPCKASGYTFTDYNMDWVRQSPGKSLEWIGDLNPNNGATIYNEKFQGKATLTVDTSSSTAYMELRSLTSEDTAVYYCARGNYYGNYYYLMDYWGQGTSVTVSS VL: DIQMTQSPSSLSVSVGERVTITCRASENIYSTLAWYQQKPGKSPKLLVYAATNLADGVPSRFSGSGSGTEYSLKINSLQPDDFGSYYCQHFWGTPYTFGGGTKLEIKR |  |  | Kd [3]: 0.07 nM |
| hucMet22Gv2.2 (antibody, V domains shown) VH: QVQLVQSGAEVKKPGASVKVSCKASGYTFTDYNMDWVRQAPGQRLEWIGDLNPNNGATIYNQKFKGRATLTVDMSASTAYMELSSLRSEDTAVYYCARGNYYGNYYYLMDYWGQGTSVTVSS VL: DIQMTQSPSSLSASVGDRVTITCRASENIYSTLAWYQQKPGKAPKLLVYAATNLADGVPSRFSGSGSGTDYTLTISSLQPEDFATYYCQHFWGTPYTFGQGTKVEIKR |  | 0.1 | percent induction of NCI-H441 cell growth (WST-8), normalised to 100 ng/mL HGF [4]: 72% |
| hucMet22Gv2.2-DGN549 (antibody, human IgG1, kappa, V domains shown, DGN549 conjugate; linkage site not stated for this antibody) VH: QVQLVQSGAEVKKPGASVKVSCKASGYTFTDYNMDWVRQAPGQRLEWIGDLNPNNGATIYNQKFKGRATLTVDMSASTAYMELSSLRSEDTAVYYCARGNYYGNYYYLMDYWGQGTSVTVSS VL: DIQMTQSPSSLSASVGDRVTITCRASENIYSTLAWYQQKPGKAPKLLVYAATNLADGVPSRFSGSGSGTDYTLTISSLQPEDFATYYCQHFWGTPYTFGQGTKVEIKR |  | 0.2 |  |
| hucMet22Gv2.2-sSPDB-DM4 (antibody, human IgG1, kappa, V domains shown, lysines linked to sSPDB-DM4, on average 3-4 DM4 per antibody) VH: QVQLVQSGAEVKKPGASVKVSCKASGYTFTDYNMDWVRQAPGQRLEWIGDLNPNNGATIYNQKFKGRATLTVDMSASTAYMELSSLRSEDTAVYYCARGNYYGNYYYLMDYWGQGTSVTVSS VL: DIQMTQSPSSLSASVGDRVTITCRASENIYSTLAWYQQKPGKAPKLLVYAATNLADGVPSRFSGSGSGTDYTLTISSLQPEDFATYYCQHFWGTPYTFGQGTKVEIKR |  | 0.2 |  |
